From patent US20190112393 (published 2019)
Substitutions are numbered along the chain they refer to. Where two headings read alike, the source gives them in different places. Blank lines part the entries; values can stand above or below the binder they belong to.

Columns and labels:
human FcγRIIb [1] = molecular target: T1, human FcγRIIb (human, UniProt P31994); experiment: SPR
T1 chain: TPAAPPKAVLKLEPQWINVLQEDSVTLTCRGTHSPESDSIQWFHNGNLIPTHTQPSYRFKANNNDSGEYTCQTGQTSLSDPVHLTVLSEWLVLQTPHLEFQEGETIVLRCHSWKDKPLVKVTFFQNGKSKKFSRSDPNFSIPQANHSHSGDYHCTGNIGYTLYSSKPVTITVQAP

human FcγRIIb [2] = molecular target: T1, human FcγRIIb; experiment: SPR
human FcγRIIb [3] = molecular target: T1, human FcγRIIb; experiment: SPR
human FcγRIa [4] = molecular target: T2, human FcγRIa (human, UniProt P12314); experiment: SPR
T2 chain: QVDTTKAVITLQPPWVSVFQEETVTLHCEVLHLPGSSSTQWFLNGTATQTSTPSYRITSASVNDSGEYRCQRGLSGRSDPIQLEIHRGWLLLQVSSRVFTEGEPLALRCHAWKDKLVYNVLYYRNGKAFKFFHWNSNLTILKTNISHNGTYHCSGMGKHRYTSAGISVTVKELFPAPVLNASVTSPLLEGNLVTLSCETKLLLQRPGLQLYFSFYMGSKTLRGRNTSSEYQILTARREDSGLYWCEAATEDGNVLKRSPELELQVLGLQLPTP

human FcγRIIb [5] = molecular target: T1, human FcγRIIb; experiment: SPR
human FcγRIa [6] = molecular target: T2, human FcγRIa; experiment: SPR
human FcγRIa [7] = molecular target: T2, human FcγRIa; experiment: SPR
human FcγRIIb [8] = molecular target: T1, human FcγRIIb; experiment: SPR
human IL-6 receptor = molecular target: T3, human IL-6 receptor (human, UniProt P08887); experiment: SPR, pH 7.4, 3 uM Ca, 37C
T3 chain: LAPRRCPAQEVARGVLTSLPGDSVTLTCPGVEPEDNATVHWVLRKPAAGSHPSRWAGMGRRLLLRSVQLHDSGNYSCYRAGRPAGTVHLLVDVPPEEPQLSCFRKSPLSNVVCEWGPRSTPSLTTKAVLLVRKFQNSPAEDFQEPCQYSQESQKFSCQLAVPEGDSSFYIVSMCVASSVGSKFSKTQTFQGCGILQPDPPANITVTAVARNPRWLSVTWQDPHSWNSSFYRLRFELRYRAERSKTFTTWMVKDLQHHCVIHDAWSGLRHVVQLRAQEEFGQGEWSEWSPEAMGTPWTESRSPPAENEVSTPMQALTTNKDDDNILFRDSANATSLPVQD

mouse FcγRIV = molecular target: T4, mouse FcγRIV (mouse, UniProt A0A0B4J1G0); experiment: SPR
T4 chain: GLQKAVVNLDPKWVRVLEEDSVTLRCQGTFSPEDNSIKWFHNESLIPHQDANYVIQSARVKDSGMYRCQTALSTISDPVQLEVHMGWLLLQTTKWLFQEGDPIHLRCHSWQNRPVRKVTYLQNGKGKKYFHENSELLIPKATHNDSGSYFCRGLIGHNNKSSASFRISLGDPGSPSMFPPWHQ

mouse FcγRI = molecular target: T5, mouse FcγRI (mouse, UniProt P26151); experiment: SPR
T5 chain: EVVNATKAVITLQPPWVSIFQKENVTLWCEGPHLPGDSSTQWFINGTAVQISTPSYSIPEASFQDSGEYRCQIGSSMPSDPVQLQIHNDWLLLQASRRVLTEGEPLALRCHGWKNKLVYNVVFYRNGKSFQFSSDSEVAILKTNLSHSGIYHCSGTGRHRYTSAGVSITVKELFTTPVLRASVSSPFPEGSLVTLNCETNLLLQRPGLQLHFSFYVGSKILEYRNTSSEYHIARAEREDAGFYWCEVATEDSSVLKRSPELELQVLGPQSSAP

B4: BP268 (antibody)
chain 1: QVQLQESGPGLVKPSETLSLTCAVSGHSISHDHAWSWVRQPPGEGLEWIGFISYSGITNYNPSLQGRVTISRDNSKNTLYLQMNSLRAEDTAVYYCARSLARTTAMDYWGEGTLVTVSSASTKGPSVFPLAPSSKSTSGGTAALGCLVKDYFPEPVTVSWNSGALTSGVHTFPAVLQSSGLYSLSSVVTVPSSSLGTQTYICNVNHKPSNTKVDKKVEPKSCDKTHTCPPCPAPDLLGDDSVFLFPPKPKDTLMISRTPEVTCVVVDVSEEDGEVKFNWYVDGVEVHNAKTKPREEQDNSTYRVVSVLTVLHQDWLNGKEYKCKVSNKALPAPIEKTISKAKGQPREPQVYTLPPSRDELTKNQVSLTCLVKGFYPSDIAVEWESNGQPENNYKTTPPVLDSDGSFFLYSKLTVDKSRWQQGNVFSCSVMHEALHNHYTQESLSLSP
chain 2: not shown
Kd (human FcγRIa [4]): 4.5 nM | Kd (human FcγRIIb [5]): 92 nM

B6: BP447 (antibody)
chain 1: B4 chain 1 with S269A, D298Y, A332R, P398A
chain 2: not shown
Kd (human FcγRIa [6]): 0.9 nM

B10: BP269 (antibody)
chain 1: B4 chain 1 with D235E
chain 2: not shown
Kd (human FcγRIa [4]): 14 nM | Kd (human FcγRIIb [5]): 110 nM

B12: BP350 (antibody)
chain 1: B4 chain 1 with S269E, D298Y
chain 2: not shown
Kd (human FcγRIIb [8]): 100 nM

B13: BP130 (antibody)
chain 1: B4 chain 1 with D239G, E270H, G273P, D298Y, V325M, A332K
chain 2: not shown
Kd (human FcγRIIb [3]): 300 nM

B15: BP456 (antibody)
chain 1: B4 chain 1 with S269A, D298Y, A332R, P398M
chain 2: not shown
Kd (human FcγRIa [6]): 0.6 nM

B16: BP262 (antibody)
chain 1: B4 chain 1 with D235E, D298Y
chain 2: not shown
Kd (human FcγRIa [4]): 10 nM | Kd (human FcγRIIb [5]): 120 nM

B17: BP084 (antibody)
chain 1: B4 chain 1 with D235E, D239G, E270H, G273P, D298Y, V325M, A332K
chain 2: not shown
Kd (human FcγRIa [7]): 7 nM | Kd (human FcγRIIb [3]): 500 nM

B18: 6RL#9-IgG1 (antibody, V domains shown)
VH: QVQLVQSGAEVKKPGASVKVSCKASGYTFTSYYMHWVRQAPGQGLEWMGIINPSGGSTSYAQKFQGRVTMTRDTSTSTVYMELSSLRSEDTAVYYCARDDPGGGEYYFDYWGQGTLVTVSS
VL: QSVLTQPPSVSGAPGQRVTISCTGSRSNMGAGYDVHWYQLLPGAAPKLLISHNTHRPSGVPDRFSGSKSGASASLAITGLQAEDEADYYCQSHDSSLSAVVFGGGTKLTVLS
Kd (human IL-6 receptor): > 31000 nM

B19: FH4-IgG1 (antibody, V domains shown)
VH: QVQLVQSGAEVKKPGSSVKVSCKASGGTFSSYAISWVRQAPGQGLEWMGGIIPIFGTANYAQKFQGRVTITADESTSTAYMELSSLRSEDTAVYYCARERDYYDSSGYYDAFDIWGQGTMVTVSS
VL: ETTVTQSPSFLSASVGDRVTITCITTTDIDDDMNWFQQEPGKAPKLLISEGNILRPGVPSRFSSSGYGTDFTLTISKLQPEDFATYYCLQSDNLPFTFGQGTKLEIKR
Kd (human IL-6 receptor): > 34000 nM

B20: VH3/L(WT)-mIgG1-mF44 (antibody)
chain 1: QVQLQESGPGLVKPSETLSLTCAVSGHSISHDHAWSWVRQPPGEGLEWIGFISYSGITNYNPSLQGRVTISRDNSKNTLYLQMNSLRAEDTAVYYCARSLARTTAMDYWGEGTLVTVSSAKTTPPSVYPLAPGSAAQTNSMVTLGCLVKGYFPEPVTVTWNSGSLSSGVHTFPAVLQSDLYTLSSSVTVPSSTWPSETVTCNVAHPASSTKVDKKIVPRDCGCKPCICTVPEVSSVFIFPPKPKDVLTITLTPKVTCVVVDISKDDPEVQFSWFVDDVEVHTAQTQPREEQFNSTFRSVSELPIMHQDWLNGKEFKCRVNSADFPAPIEKTISKTKGRPKAPQVYTIPPPKEQMAKDKVSLTCMITDFFPEDITVEWQWNGQPAENYKNTQPIMDTDGSYFVYSKLNVQKSNWEAGNTFTCSVLHEGLHNHHTEKSLSHSPGK
chain 2: not shown
binding result (mouse FcγRIV): no binding | binding result (mouse FcγRI): no binding

B21: VH3/L(WT)-mIgG1 (antibody)
chain 1: B20 chain 1 with D323A
chain 2: not shown
binding result (mouse FcγRIV): no binding | binding result (mouse FcγRI): no binding

Second part, the binder after the results:

Kd (human FcγRIIb [1]): 4 nM
B1: BP464 (antibody)
chain 1: B4 chain 1 with S269A, D298Y, A332R, P398Y
chain 2: not shown

Kd (human FcγRIIb [2]): 100 nM
B2: BP237 (antibody)
chain 1: B4 chain 1 with L236Y, S269Q, E270D, K328A, A332K
chain 2: not shown

Kd (human FcγRIIb [3]): 40 nM
B3: BP151 (antibody)
chain 1: B4 chain 1 with L236Y, E270H, G273P, D298Y, K328A, A332R
chain 2: not shown

Kd (human FcγRIIb [2]): 60 nM
B5: BP239 (antibody)
chain 1: B4 chain 1 with L236Y, S269Q, E270D, K328A, A332R
chain 2: not shown

Kd (human FcγRIa [7]): 9 nM | Kd (human FcγRIIb [3]): 1000 nM
B7: 2B261 (antibody)
chain 1: B4 chain 1 with D239G, E270H, G273P
chain 2: not shown

Kd (human FcγRIa [7]): 10 nM
B8: BP182 (antibody)
chain 1: B4 chain 1 with D239G, E270H, A332K
chain 2: not shown

Kd (human FcγRIIb [2]): 40 nM
B9: BP228 (antibody)
chain 1: B4 chain 1 with D235E, L236Y, S269Q, E270D, D298Y, K328D, A332R
chain 2: not shown

Kd (human FcγRIIb [1]): 4 nM
B11: BP455 (antibody)
chain 1: B4 chain 1 with S269A, D298Y, A332R, P398L
chain 2: not shown

Kd (human FcγRIIb [8]): 100 nM
B14: BP367 (antibody)
chain 1: B4 chain 1 with E271D, D298Y
chain 2: not shown

binding result (mouse FcγRIV): no binding | binding result (mouse FcγRI): no binding
B22: VH3/L(WT)-mIgG1-mF46 (antibody)
chain 1: B20 chain 1 with S235D
chain 2: not shown
